{"source": "paper PMC3087855", "about": "(Nature structural & molecular biology, 2011)", "proteins": {"B1": {"name": "bacteriophage P22 portal protein core (residues 1-602) (domain or fragment, UniProt P26744 1-602, looked up)", "chain": "MADNENRLESILSRFDADWTASDEARREAKNDLFFSRVSQWDDWLSQYTTLQYRGQFDVVRPVVRKLVSEMRQNPIDVLYRPKDGARPDAADVLMGMYRTDMRHNTAKIAVNIAVREQIEAGVGAWRLVTDYEDQSPTSNNQVIRREPIHSACSHVIWDSNSKLMDKSDARHCTVIHSMSQNGWEDFAEKYDLDADDIPSFQNPNDWVFPWLTQDTIQIAEFYEVVEKKETAFIYQDPVTGEPVSYFKRDIKDVIDDLADSGFIKIAERQIKRRRVYKSIITCTAVLKDKQLIAGEHIPIVPVFGEWGFVEDKEVYEGVVRLTKDGQRLRNMIMSFNADIVARTPKKKPFFWPEQIAGFEHMYDGNDDYPYYLLNRTDENSGDLPTQPLAYYENPEVPQANAYMLEAATSAVKEVATLGVDTEAVNGGQVAFDTVNQLNMRADLETYVFQDNLATAMRRDGEIYQSIVNDIYDVPRNVTITLEDGSEKDVQLMAEVVDLATGEKQVLNDIRGRYECYTDVGPSFQSMKQQNRAEILELLGKTPQGTPEYQLLLLQYFTLLDGKGVEMMRDYANKQLIQMGVKKPETPEEQQWLVEAQQAKQG", "modifications": "selenomethionine derivatized (methionines replaced by selenomethionine)"}}, "target": "the molecule itself", "experiment": "crystal structure", "data": [{"protein": "B1", "values": [{"measurement": "stoichiometry N", "result": 12}]}]}
